Laboratory results from patent US20240409645A1 (DUALYX, published 2024).
Changes are numbered by the printed parent chain.

T1: human IL-2Rγ (common cytokine receptor γ-chain) (human, UniProt P31785 23-262, limits assumed)
T1 construct: Recombinant protein coated on the plate or immobilised on a CM5 chip; also called hu IL-2R; CD132
T1 sequence: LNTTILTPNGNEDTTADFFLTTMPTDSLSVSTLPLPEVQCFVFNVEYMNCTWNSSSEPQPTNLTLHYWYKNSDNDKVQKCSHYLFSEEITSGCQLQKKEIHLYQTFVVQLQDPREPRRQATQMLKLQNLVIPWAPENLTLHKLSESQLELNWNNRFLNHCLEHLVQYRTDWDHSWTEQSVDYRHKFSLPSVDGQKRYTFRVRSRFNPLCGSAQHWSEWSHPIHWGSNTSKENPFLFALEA

T2: mouse IL-2Rγ (mouse, UniProt P34902 23-263)
T2 construct: also called mo IL-2R
T2 sequence (looked up): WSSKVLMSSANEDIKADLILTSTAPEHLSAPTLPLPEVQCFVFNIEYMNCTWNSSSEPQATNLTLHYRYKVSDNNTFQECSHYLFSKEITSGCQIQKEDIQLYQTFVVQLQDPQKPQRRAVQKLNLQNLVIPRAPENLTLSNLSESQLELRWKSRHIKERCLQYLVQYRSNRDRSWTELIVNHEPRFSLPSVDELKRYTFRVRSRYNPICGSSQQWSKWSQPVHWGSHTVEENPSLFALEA

B1: 34-MP04A12 (VHH)
VHH: QVQLVESGGGLVQAGSSLRLSCAASGRTLSRLAMGWFRQAPGKEREFVAVNSWGGDTFYADSVEGRFTYSRDNAKSAVYLQMNSLQPEDTAVYYCAAAPTSFATTAYSSSNSYAYWGQGAQVTVSS
notes: VHH in periplasmic extract; also called FJ1427_P035MP04A12; clone nr
B2: FJ1427_P035MP04E08 (VHH)
VHH: B1 VHH with S16G, L32Y, A49T, V50A, F58Y, E64Q, Y69F, S76N, A77T, A120T
notes: VHH in periplasmic extract; also called clone nr
B3: FJ1427_P035MP04C02 (VHH)
VHH: B1 VHH with S16G, L32Y, A49T, V50A, F58Y, E64Q, Y69F, S76N, A77T, A120T
notes: as for B2
B4: FJ1427_P035MP04H05 (VHH)
VHH: B1 VHH with S16G, L32Y, A49T, V50A, F58Y, E64Q, Y69F, S76N, A77T, A120T
notes: as for B2
B5: FJ1427_P035MP04E11 (VHH)
VHH: B1 VHH with S16G, L32Y, A49T, V50A, F58Y, E64Q, Y69F, S76N, A77T, A120T
notes: as for B2
B6: FJ1427_P035MP04D10 (VHH)
VHH: B1 VHH with S16G, L32Y, A49T, V50A, F58Y, E64Q, Y69F, S76N, A77T, A120T
notes: VHH in periplasmic extract; also called clone nr; 364
B7: FJ1427_P035MP04E01 (VHH)
VHH: B1 VHH with S16G, L32Y, A49T, V50A, F58Y, E64Q, Y69F, S76N, A77T, A120T
notes: as for B2
B8: FJ1427_P035MP04G02 (VHH)
VHH: B1 VHH with S16G, L32Y, A49T, V50A, F58Y, E64Q, Y69F, S76N, A77T, A120T
notes: as for B2
B9: FJ1427_P035MP04B09 (VHH)
VHH: B1 VHH with S16G, L32Y, A49T, V50A, F58Y, E64Q, Y69F, S76N, A77T, A120T
notes: as for B2
B10: FJ1427_P035MP04H01 (VHH)
VHH: B1 VHH with S16G, L32Y, A49T, V50A, F58Y, E64Q, Y69F, S76N, A77T, A120T
notes: as for B2
B11: FJ1427_P035MP04F06 (VHH)
VHH: B1 VHH with S16G, L32Y, A49T, V50A, F58Y, E64Q, Y69F, S76N, A77T, A120T
notes: as for B2
B12: FJ1427_P035MP04B12 (VHH)
VHH: B1 VHH with S16G, L32Y, A49T, V50A, F58Y, E64Q, Y69F, S76N, A77T, A120T
notes: as for B2
B13: FJ1427_P035MP04A02 (VHH)
VHH: B1 VHH with S16G, L32Y, A49T, V50A, F58Y, E64Q, Y69F, S76N, A77T, A120T
notes: as for B2
B14: FJ1427_P035MP04F01 (VHH)
VHH: B1 VHH with S16G, L32Y, A49T, V50A, F58Y, E64Q, Y69F, S76N, A77T, A120T
notes: as for B2
B15: FJ1427_P035MP04G04 (VHH)
VHH: QVQLVESGGGLVQAGGSLRLSCAASGRTLSRYAVGWFRQAPGKEREFVTANSWGGDTFYADSVQGRFTFSRDNAKNTVYLQMNSLLPEDAAVYYCAAAPTSFATTAYSSSNSYKVWGQGTQVTVSS
notes: as for B2
B16: FJ1427_P035MP04C04 (VHH)
VHH: B15 VHH with Q1E, V34M, F58Y, L86Q, A90T, K114A, V115Y
notes: as for B2
B17: FJ1427_P035MP04A01 (VHH)
VHH: B15 VHH with Q1E, V34M, F58Y, L86Q, A90T, K114A, V115Y
notes: as for B2
B18: FJ1427_P035MP04D06 (VHH)
VHH: QVQLVESGGGLVQAGGSLRLSCAASGRALSRLAMGWFRQAPGKEREFVVASSWGDDTFYADSVKGRFTFSRDNAKNTVYLQMNSLQPGDTAVYYCAAAPTSFATTAYSSSNSYAYWGQGTQVTVSS
notes: as for B2
B19: FJ1427_P035MP04E09 (VHH)
VHH: B15 VHH with V34M, F58Y, F67S, L86Q, A90T, K114A, V115Y
notes: as for B2
B20: FJ1427_P035MP04F07 (VHH)
VHH: B15 VHH with Q1E, V34M, F58Y, L86Q, A90T, K114A, V115Y
notes: as for B2
B21: FJ1427_P035MP04F03 (VHH)
VHH: B1 VHH with S16G, L32N, V50A, N51D, Y69F, S76N, A97G, A114R, A120T
notes: VHH in periplasmic extract; also called clone nr; 310
B22: FJ1427_P035MP04B05 (VHH)
VHH: B15 VHH with Q1E, V34M, F58Y, L86Q, A90T, K114A, V115Y
notes: as for B2
B23: FJ1427_P035MP04B08 (VHH)
VHH: B15 VHH with A23V, V34M, F58Y, L86Q, A90T, K114A, V115Y
notes: as for B2
B24: FJ1427_P035MP04C06 (VHH)
VHH: B15 VHH with Q1E, V34M, F58Y, L86Q, A90T, K114A, V115Y
notes: as for B2
B25: FJ1427_P035MP04E07 (VHH)
VHH: B1 VHH with S16G, L32Y, E46D, V50A, N51T, F58Y, Y69F, S76N, A120T
notes: as for B2
B26: FJ1427_P035MP04H03 (VHH)
VHH: QLQLVESGGGLVQAGGSLRLSCAASGRTLSRYAMGWFRQAPGKEREFVAADSWGGDTFYADSVEGRFTFSRDNAKNAAYLQMNSLQPEDTATYYCAGAPTSFATTAYSSSNSYRYWGQGTQVTVSS
notes: as for B2
B27: FJ1427_P035MP04D03 (VHH)
VHH: B15 VHH with Q1E, G15E, V34M, F58Y, L86Q, A90T, K114A, V115Y
notes: as for B2
B28: FJ1427_P035MP04H07 (VHH)
VHH: B15 VHH with V2L, V34M, F58Y, L86Q, A90T, K114A, V115Y
notes: as for B2
B29: FJ1427_P035MP04A06 (VHH)
VHH: B15 VHH with A14P, V34M, F58Y, L86Q, A90T, K114A, V115Y
notes: as for B2
B30: 37-MP07F09 (VHH)
VHH: B26 VHH with L2V, F47Y, A50I, A77E, A78V, T92V
notes: VHH in periplasmic extract; also called FJ1427_P035MP07F09; clone nr
B31: 38-MP07A11 (VHH)
VHH: QVQLVESGGGLVQAGGSLRLSCAASGRSLSRDAMGWFRQAPGKEREFVAVMSWGGDTFYTDSVEGRFTFSRDNAKNAVYLEMNDLQPEDTAVYYCAAAPTSFATTAYSSSNSYSYWGRGTQVTVSS
notes: VHH in periplasmic extract; also called FJ1427_P035MP07A11; clone nr

Biological target: T1, human IL-2Rγ (common cytokine receptor …)
Test: PE binding ELISA, periplasmic extract on coated protein
Outline: (§1)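 Plates were coated overnight at 4° C with human or mouse IL-2R chain protein, and free sites blocked for 1 hour in 4% Marvel in PBS. Periplasmic extracts diluted 1:5 in 1% Marvel/PBS then bound for 1 hour, with specificity assessed from 450 nm absorbance relative to negative controls.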

| Binder | OD (PE binding ELISA) [OD450 nm] |
| --- | --- |
| B1 | 1.3 |
| B2 | 1.23 |
| B3 | 1 |
| B4 | 1.57 |
| B5 | 0.94 |
| B6 | 1.26 |
| B7 | 1.08 |
| B8 | 0.98 |
| B9 | 1.54 |
| B10 | 1.67 |
| B11 | 1.41 |
| B12 | 0.936 |
| B13 | 1.45 |
| B14 | 1.66 |
| B15 | 1.67 |
| B16 | 1.43 |

| Binder | OD (PE binding ELISA) [OD450 nm] |
| --- | --- |
| B17 | 0.867 |
| B18 | 2.1 |
| B19 | 0.652 |
| B20 | 0.789 |
| B21 | 1.77 |
| B22 | 1.49 |
| B23 | 1.44 |
| B24 | 0.797 |
| B25 | 0.919 |
| B26 | 1.25 |
| B27 | 1.66 |
| B28 | 0.919 |
| B29 | 0.898 |
| B30 | 1.81 |
| B31 | 1.31 |

Biological target: T2, mouse IL-2Rγ
Test: as above
Outline: as §1

| Binder | OD (PE binding ELISA) [OD450 nm] |
| --- | --- |
| B1 | 3.6 |
| B2 | 0.078 |
| B3 | 0.07 |
| B4 | 0.08 |
| B5 | 0.065 |
| B6 | 0.077 |
| B7 | 0.067 |
| B8 | 0.066 |
| B9 | 0.083 |
| B10 | 0.109 |
| B11 | 0.077 |
| B12 | 0.074 |
| B13 | 0.085 |
| B14 | 0.085 |
| B15 | 0.276 |
| B16 | 0.063 |

| Binder | OD (PE binding ELISA) [OD450 nm] |
| --- | --- |
| B17 | 0.06 |
| B18 | 0.637 |
| B19 | 0.07 |
| B20 | 0.064 |
| B21 | 0.3 |
| B22 | 0.063 |
| B23 | 0.075 |
| B24 | 0.061 |
| B25 | 0.079 |
| B26 | 0.442 |
| B27 | 0.063 |
| B28 | 0.076 |
| B29 | 0.063 |
| B30 | 1.49 |
| B31 | 0.173 |

Biological target: T1, human IL-2Rγ (common cytokine receptor …)
Test: SPR off-rate ranking, periplasmic extract on immobilised protein
Outline: (§2)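 CM5 chip, amine coupling (acetate buffer), ~2500 RU receptor. VHH P.E. flowed at 30 uL/min; off-rate read over 120 s.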

| Binder | koff [s⁻¹] |
| --- | --- |
| B1 | 0.000333 |
| B2 | 0.00197 |
| B3 | 0.00196 |
| B4 | 0.00273 |
| B5 | 0.00149 |
| B6 | 0.00139 |
| B7 | 0.00266 |
| B8 | 0.00148 |
| B9 | 0.00146 |
| B10 | 0.00206 |
| B11 | 0.00298 |
| B12 | 0.00344 |
| B13 | 0.00306 |
| B14 | 0.00268 |
| B15 | 0.00122 |
| B16 | 0.00214 |

| Binder | koff [s⁻¹] |
| --- | --- |
| B17 | 0.00156 |
| B18 | 0.00145 |
| B19 | 0.00162 |
| B20 | 0.00249 |
| B21 | 0.00074 |
| B22 | 0.00292 |
| B23 | 0.00205 |
| B24 | 0.00201 |
| B25 | 0.00189 |
| B26 | 0.001 |
| B27 | 0.00143 |
| B28 | 0.00154 |
| B29 | 0.00283 |
| B30 | 0.00126 |
| B31 | 0.00235 |

Biological target: T2, mouse IL-2Rγ
Test: as above
Outline: as §2

| Binder | koff [s⁻¹] |
| --- | --- |
| B1 | 0.00809 |
| B2 | 0.122 |
| B3 | 0.126 |
| B4 | 0.108 |
| B5 | 0.117 |
| B6 | 0.12 |
| B7 | 0.109 |
| B8 | 0.114 |
| B9 | 0.122 |
| B10 | 0.104 |
| B11 | 0.116 |
| B12 | 0.116 |
| B13 | 0.126 |
| B14 | 0.11 |
| B15 | 0.0666 |
| B16 | 0.151 |

| Binder | koff [s⁻¹] |
| --- | --- |
| B17 | 0.132 |
| B18 | 0.0137 |
| B19 | 0.109 |
| B20 | 0.156 |
| B21 | 0.061 |
| B22 | 0.138 |
| B23 | 0.113 |
| B24 | 0.0465 |
| B25 | 0.215 |
| B26 | 0.0297 |
| B27 | 0.168 |
| B28 | 0.101 |
| B29 | 0.113 |
| B30 | 0.007 |
| B31 | 0.0149 |
